Measurements: US20210284724A1 (I MAB BIOPHARMA US, published 2021)

Tests used:
[1] = target: T1, human CXCL13 (human, UniProt O43927 23-109); experiment: SPR Biacore T200
T1 construct: also called huCXCL13; rhCXCL13
T1 sequence (looked up): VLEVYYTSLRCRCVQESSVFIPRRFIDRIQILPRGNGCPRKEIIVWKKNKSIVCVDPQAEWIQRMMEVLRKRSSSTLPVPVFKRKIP
Text: In the first approach, mutations were chosen to target the hotspots in LCDR1, HCDR2 and HCDR3. Usually, CDR3 contributes most to antigen binding and heavy chain is more important than light chain for antigen binding. Moreover, LCDR1 is important for antigen binding. For the first trial, random mutations were targeted to hotspots in LCDR1, HCDR2 and HCDR3. Eliminate hotspots that code for conserved and buried amino acids in CDRs. […] After finishing construction of phage library, antigen CXCL13 screening was followed. Antibodies of these sequences were generated, and affinity testing was performed by Biacore T200.

[2] = target: T1, human CXCL13; experiment: ELISA binding, Fab
[3] = target: T1, human CXCL13; experiment: SPR Biacore, off-rate ranking of Fabs
[4] = target: T1, human CXCL13; experiment: SPR Biacore 8K, Fab over immobilised CXCL13
Procedure, shortened: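 Surface plasmon resonance: CXCL13 amine-coupled to CM5 chip at ~250 RU, humanized Fabs injected at 0–20 nM, 30 μl/min, in HEPES-buffered saline with EDTA and Tween-20, pH 7.4. Dissociation 600 s; regeneration with glycine-HCl pH 2.0.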

[5] = target: T1, human CXCL13; experiment: cell-based blocking assay, CXCL13 to CXCR5 cells
Procedure, shortened: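 To obtain IC50, a titration of humanized Fabs was tested against human CXCL13 binding to CHO-K1 cells expressing CXCR5. The cells (5×10⁴/well) were plated overnight at 37° C, fixed with 2% PFA and blocked with 1% BSA in PBST, then given 100 μl of Fab mixed with an equal volume of 0.3 μg/ml CXCL13 after a 30 min pre-incubation at room temperature. After 30 min on the cells and three PBST washes, bound CXCL13 was captured with 3 μg/ml human anti-CXCL13 antibody, detected with anti-human Fc-HRP and read at 450 nm.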

[6] = target: T1, human CXCL13; experiment: SPR Biacore 8K, Fab over immobilised CXCL13; remark: listed apart in the source
Method: HuCXCL13 binding affinity by Surface Plasmon Resonance. 411A11E9, 415A3D1, 64C10G1, 21H12D9, 329F2E1, 71F4A3 were selected to produce Fab and tested binding affinity. The binding of the antibodies to huCXCL13 was examined by Biacore 8K. 10 mM HEPES, 150 mM NaCl, 3 mM EDTA, 0.05% Tween-20, pH 7.4 served as running buffer and 10 mM glycine-HCl, pH2.0 served as regeneration buffer. CXCL13 protein was immobilized on Sensor Chip CM5 using amine coupling method (immobilization level ˜30RU). The serial concentrations of Fab (0-16 nM) were injected over immobilized CXCL13 at the flow rate of 30 μl/min. The dissociation phases were 600s.

[7] = target: T1, human CXCL13; experiment: ELISA, coated antigen, chimeric IgG1
Method: (§1) Elisa based binding assay. […] Briefly, 100 μl of human CXCL13 or cynomolgus CXCL13 was coated at 0.5 μg/ml overnight and then blocked by 200 μl of 5% BSA in PBS. Serial diluted antibodies were incubated with the coated antigen for 30 min at RT. The resulting plates were washed with PBS/T and incubated with goat anti-human IgG Fc-HRP for 30 min RT. The plates were developed with TMB substrate after washing with 1×PBST for 5 times and reaction stopped with 1N HCl and analyzed by spectrophotometer at OD 450-630 nm.

[8] = target: T2, cynomolgus CXCL13 (cynomolgus, UniProt H6WS58 23-109); experiment: ELISA, coated antigen, chimeric IgG1
T2 construct: also called cynoCXCL13; Cyno CXCL13
T2 sequence: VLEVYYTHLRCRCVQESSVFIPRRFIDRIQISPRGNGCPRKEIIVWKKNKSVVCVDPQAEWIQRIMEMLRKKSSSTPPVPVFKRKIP
Method: as §1

[9] = target: T1, human CXCL13; experiment: cell-based blocking ELISA, CXCL13 to CHO-K1-CXCR5
Method: This example tested the blocking of the anti-CXCL13 chimeric antibodies to CHO-K1-CXCR5 cells. Briefly, 5×10⁴ CHO-K1-CXCR5 cells were plated in 96-well plate with 100 μl of culture medium and incubated at 37° C. overnight. Cells were fixed with 100 μl of 2% PFA at RT for 1 hr after washing with PBS for 1 time. Samples were blocked with 1% BSA in PBST for 1 hr at RT. Antibodies were serial diluted from 50 μg/ml by 3-fold with 1% BSA/PBST and pre-incubated with equal volume of 0.3 μg/ml human CXCL13 for 30 min at RT. 100 μl of antibody-antigen complex was transferred into each cell wells for 30 min at RT. Samples were washed with 1×PBST for 3 times and 100 μl of 3 μg/ml of human Mab5261 antibody was added into each well to capture human CXCL13 and anti-human Fc-HRP was used to indirectly detect human CXCL13 when it bound to CHO-K1-CXCR5 cells.
Then read at 450 nm. […] Among all clones, 415A3D1, 64C10G1, 1H3A11, 414D10F5, 411A11E9, 21H12D9, 71F4A3, 329F2E1 show completely blocking activity and 408E3F3, 19H7E10, 339A6E7 appeared to be partial blockers.

B1: 71F4-4B12 (antibody, V domains shown)
VH: EVQLVESGGGLVQPGGSLRLSCAASGIDFSRYWMSWVRQAPGKGLEWVAEINPERNYINYAPSLKDRFTISRDNAKNSLYLQMNSLRAEDTAVYYCARQDDYDKYAMDYWGQGTTVTVSS
VL: DIQMTQSPSSLSASVGDRVTITCKASQDVNTGVTWYQQKPGKAPKLLIYSASYRYTGVPSRFSGSGSGTDFTFTISSLQPEDIATYYCQQYYSTPLTFGGGTKLEIK
notes: not certain; also called 71F4A3-B12
kon [1]: 5.36e+06 M⁻¹ s⁻¹

B2: 71F4A3-3F12 (antibody, V domains shown)
VH: EVQLVESGGGLVQPGGSLRLSCAASGIDFSRYWMSWVRQAPGKGLEWVAEINPESNFINYAPSLKDRFTISRDNAKNSLYLQMNSLRAEDTAVYYCARQDDYSVYAMDYWGQGTTVTVSS
VL: DIQMTQSPSSLSASVGDRVTITCKASQDVNTGVTWFQQKPGKAPKLLIYSASYRYTGVPSRFSGSGSGTDFTFTISSLQPEDIATYYCQQYYSTPLTFGGGTKLEIK
notes: also called 71F4-3F12
kon [1]: 6.3e+06 M⁻¹ s⁻¹

B3: 71F4A3-4H1 (antibody, V domains shown)
VH: EVQLVESGGGLVQPGGSLRLSCAASGIDFSRYWMSWVRQAPGKGLEWVAEINPESTLINYAPSLKDRFTISRDNAKNSLYLQMNSLRAEDTAVYYCARQDDYRNYAMDYWGQGTTVTVSS
VL: DIQMTQSPSSLSASVGDRVTITCKASQDVNTGVSWFQQKPGKAPKLLIYSASYRYTGVPSRFSGSGSGTDFTFTISSLQPEDIATYYCQQYYSTPLTFGGGTKLEIK
notes: also called 71F4-4H1
kon [1]: 1.64e+07 M⁻¹ s⁻¹

B4: 71F4A3-5A4 (antibody, V domains shown)
VH: EVQLVESGGGLVQPGGSLRLSCAASGIDFSRYWMSWVRQAPGKGLEWVAEINPESTGINYAPSLKDRFTISRDNAKNSLYLQMNSLRAEDTAVYYCARQDDYWTYAMDYWGQGTTVTVSS
VL: DIQMTQSPSSLSASVGDRVTITCKASQDVNTAVSWTQQKPGKAPKLLIYSASYRYTGVPSRFSGSGSGTDFTFTISSLQPEDIATYYCQQYYSTPLTFGGGTKLEIK
notes: also called 71F4-5A4
kon [1]: 6.58e+06 M⁻¹ s⁻¹

B5: 71F4A3-BC1 (antibody, V domains shown)
VH: EVQLVESGGGLVQPGGSLRLSCAASGIDFSRYWMSWVRQAPGKGLEWVAEINPEASSINYAPSLKDRFTISRDNAKNSLYLQMNSLRAEDTAVYYCARQDDYSHYAMDYWGQGTTVTVSS
VL: DIQMTQSPSSLSASVGDRVTITCKASQDVNTGVSWSQQKPGKAPKLLIYSASYRYTGVPSRFSGSGSGTDFTFTISSLQPEDIATYYCQQYYSTPLTFGGGTKLEIK
notes: also called 71F4-BC1
kon [1]: 2.09e+06 M⁻¹ s⁻¹

B6: 71F4A3-BC4 (antibody, V domains shown)
VH: EVQLVESGGGLVQPGGSLRLSCAASGIDFSRYWMSWVRQAPGKGLEWVAEINPEAGKWNYAPSLKDRFTISRDNAKNSLYLQMNSLRAEDTAVYYCARQDDYTTYAMDYWGQGTTVTVSS
VL: DIQMTQSPSSLSASVGDRVTITCKASQDVNTGVSWYQQKPGKAPKLLIYSASYRYTGVPSRFSGSGSGTDFTFTISSLQPEDIATYYCQQYYSTPLTFGGGTKLEIK
notes: also called 71F4-BC4
kon [1]: 362000 M⁻¹ s⁻¹

B7: 71F4A3-BD12 (antibody, V domains shown)
VH: EVQLVESGGGLVQPGGSLRLSCAASGIDFSRYWMSWVRQAPGKGLEWVAEINPETTIINYAPSLKDRFTISRDNAKNSLYLQMNSLRAEDTAVYYCARQDDYRHYAMDYWGQGTTVTVSS
VL: DIQMTQSPSSLSASVGDRVTITCKASQDVNTGVAWFQQKPGKAPKLLIYSASYRYTGVPSRFSGSGSGTDFTFTISSLQPEDIATYYCQQYYSTPLTFGGGTKLEIK
notes: also called 71F4-BD12
kon [1]: 1.9e+06 M⁻¹ s⁻¹

B8: 71F4A3-BE3 (antibody, V domains shown)
VH: EVQLVESGGGLVQPGGSLRLSCAASGIDFSRYWMSWVRQAPGKGLEWVAEINPESSTINYAPSLKDRFTISRDNAKNSLYLQMNSLRAEDTAVYYCARQDDYLTYAMDYWGQGTTVTVSS
VL: DIQMTQSPSSLSASVGDRVTITCKASQDVNTAVDWFQQKPGKAPKLLIYSASYRYTGVPSRFSGSGSGTDFTFTISSLQPEDIATYYCQQYYSTPLTFGGGTKLEIK
notes: also called 71F4-BE3
kon [1]: 1.03e+06 M⁻¹ s⁻¹

B9: 71F4A3-VH3VL1 (Fab, V domains shown)
VH: EVQLVQSGGGLVQPGGSLRLSCAASGIDFSRYWMSWVRQAPGKGLEWVGEINPDSSTINYAPSLKDRFTISRDNAKNSLYLQMNSVRAEDTAVYYCARQDDYEYYAMDYWGQGTTVTVSS
VL: DIQMTQSPSSLSASVGDRVTITCKASQDVNTGVAWYQQKPGKAPKLLIYSASYRYTGVPSRFSGSGSGTDFTFTISSLQPEDIATYYCQQYYSTPLTFGGGTKLEIK
notes: Humanized Fab, human gamma 1 and kappa constant domains
EC50 [2]: 0.575 nM | Kd [3]: 0.462 nM | koff [3]: 0.000987 s⁻¹ | kon [3]: 2.14e+06 M⁻¹ s⁻¹ | Kd [4]: 0.934 nM | koff [4]: 0.00153 s⁻¹ | kon [4]: 1.64e+06 M⁻¹ s⁻¹ | IC50 [5]: 11.3 nM

B10: 71F4A3 chimeric Fab (Fab, V domains shown)
VH: EVKLLQSGGGLVQPGGSLKLSCAASGIDFSRYWMSWVRRAPGKGLEWIGEINPDSSTINYAPSLKDKFIISRDNAKNTLYLQMSKVRSEDTALYYCARQDDYEYYAMDYWGQGTSVTVSS
VL: DIVMTQSHKSMSTSVGDRVSITCKASQDVNTGVAWYRQKPGQSPKLLIYSASYRYTGVPDRFTGSGSGTDFTFTISSVQAEDLAVYYCQQYYSTPLTFGAGTKLELK
notes: Fab
EC50 [2]: 1.49 nM | Kd [3]: 0.556 nM | koff [3]: 0.00184 s⁻¹ | kon [3]: 3.3e+06 M⁻¹ s⁻¹ | Kd [6]: 0.154 nM | koff [6]: 0.000285 s⁻¹ | kon [6]: 1.85e+06 M⁻¹ s⁻¹ | Kd [4]: 0.782 nM | koff [4]: 0.00141 s⁻¹ | kon [4]: 1.8e+06 M⁻¹ s⁻¹ | IC50 [5]: 5.07 nM

B11: 415A3D1 chimeric human IgG1 antibody (antibody, V domains shown)
VH: EVKLLESGGGLVQAGGSMRLSCGAFGFTVTDFYINWIRQPAGKAPEWLGFMRNKANGYTTEYNPSVKGRFTISRNNTQNMPYLQMNTLRTEDTAIYYCARSRYNADDYYVGVMDVWGQGASVTVSS
VL: DIQMTQFPASLSASLGETVSIECLASEDIYNNLAWYQQKPGKSPQLLIYYTNSLQDGVPSRFSGTGSGTQYSLKINSLESEDAATYFCLQDSEYPWTFGGGTKLKLK
notes: Chimeric human IgG1; label 415A3D1 read as clone 415A3D1F4
EC50 [7]: 0.0729 µg/mL | EC50 [8]: 0.0469 µg/mL | IC50 [9]: 0.985 µg/mL

B12: 1H3A11 chimeric human IgG1 antibody (antibody, V domains shown)
VH: EVQLVESGGGLVKPGGSLKLSCAASGFTFSSYAMSWVRQTPEKRLEWVATISDGGSDTYYPDNVKGRFTISRDNAKNNLYLQMSHLKSEDTAMYYCARDYYGSSYEDYAMDYWGQGTSVTVSS
VL: DIQMTQSPSSLSASLGGKVTITCKASQDINKYITWYQHKPGKGPRLLIHYTSTLQPGIPSRFSGSGSGRDYSFSISNLEPEDIATYYCLQYDNLYTFGGGTKLEIK
notes: Chimeric human IgG1
EC50 [7]: 0.0553 µg/mL | EC50 [8]: 0.144 µg/mL | IC50 [9]: 1.19 µg/mL
